From patent publication US20190233493A1 (Sanofi, published 2019)
*1 amine or outer side, *2 acyl side, *3 side chain or, on linkers, in order; H or OH if unused. Primed or numbered codes have the meaning given here. Side-chain parts run from the residue outwards. [ ]: non-standard residue; d: D form. The star is where a group is joined. PEG28′ = polyethylene glycol spacer with 28 ethoxy units (aminoethoxy-ethoxy chain); PEG24′ = polyethylene glycol spacer of 24 ethoxy units; PEG12 = NCCOCCOCCOCCOCCOCCOCCOCCOCCOCCOCCOCCOCCC(=O)O; γGlu = O=C(O)[C@H](CCC(=O)[*:2])N[*:1]; Stearoyl = CCCCCCCCCCCCCCCCCC(=O)*; Palmitoyl = CCCCCCCCCCCCCCCC(=O)*; Nle = CCCC[C@H](N)C(=O)O; Aib = CC(C)(N)C(=O)O

T1: RXFP1 receptor (UniProt Q9HBX9 1-757, limits assumed)
T1 sequence (looked up): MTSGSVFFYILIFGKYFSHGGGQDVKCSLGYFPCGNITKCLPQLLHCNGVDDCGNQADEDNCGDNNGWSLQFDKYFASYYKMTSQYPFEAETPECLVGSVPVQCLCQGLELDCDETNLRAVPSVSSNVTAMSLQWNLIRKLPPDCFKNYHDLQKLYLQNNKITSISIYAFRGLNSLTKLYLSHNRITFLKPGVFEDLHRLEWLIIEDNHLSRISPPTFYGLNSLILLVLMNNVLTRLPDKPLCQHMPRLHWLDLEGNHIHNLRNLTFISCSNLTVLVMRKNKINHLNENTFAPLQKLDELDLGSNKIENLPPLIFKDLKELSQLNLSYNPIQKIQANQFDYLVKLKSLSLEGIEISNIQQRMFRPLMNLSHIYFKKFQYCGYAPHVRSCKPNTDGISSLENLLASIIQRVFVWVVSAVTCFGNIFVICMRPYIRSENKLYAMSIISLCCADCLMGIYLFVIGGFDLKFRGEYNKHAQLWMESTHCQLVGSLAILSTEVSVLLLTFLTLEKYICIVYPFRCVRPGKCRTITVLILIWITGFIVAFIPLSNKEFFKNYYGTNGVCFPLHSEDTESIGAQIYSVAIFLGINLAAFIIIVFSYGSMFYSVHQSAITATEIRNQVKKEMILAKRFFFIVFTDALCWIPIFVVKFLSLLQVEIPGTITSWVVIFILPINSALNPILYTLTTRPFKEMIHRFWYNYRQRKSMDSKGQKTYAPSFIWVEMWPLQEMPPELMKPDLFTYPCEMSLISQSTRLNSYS


Assays:
RXFP1 receptor [1] = molecular target: T1, RXFP1 receptor; assay: cell-based or functional assay
RXFP1 receptor [2] = molecular target: T1, RXFP1 receptor; assay: cell-based or functional assay; remark: listed apart in the source

| Binder | EC50 (nM), OVCAR 5 cells (cAMP) (RXFP1 receptor [1]) | EMax, OVCAR 5 cells (cAMP) (RXFP1 receptor [1]) | EC50 (nM), cAMP assay in OVCAR 5 cells (RXFP1 receptor [2]) | Emax, cAMP assay in OVCAR 5 cells (RXFP1 receptor [2]) |
| --- | --- | --- | --- | --- |
| Ac-LEGREKVRAK(Ac)I[Aib][Aib]EG[Nle]STWS[Aib]RKK[PEG28′]K([γGlu-γGlu-γGlu-Stearoyl])-NH2 [peptide of SEQ ID NO: 48] | 0.25 nM | 99% | – | – |
| Ac-LEGREKVRAQI[Aib][Aib]EGMSTWS[Aib]RK[PEG24′]K([γGlu-γGlu-γGlu-Palmitoyl])-NH2 [peptide of SEQ ID NO: 47] | 2.56 nM | 100% | – | – |
| Ac-LEGREKVRAK(Ac)I[Aib][Aib]EG[Nle]STYS[Aib]RKK(Ac)[PEG12]K([γGlu-γGlu-γGlu-Stearoyl])-NH2 (SMILES CCCCCCCCCCCCCCCCCC(=O)N[C@@H](CCC(=O)N[C@@H](CCC(=O)N[C@@H](CCC(=O)NCCCC[C@H](NC(=O)CCOCCOCCOCCOCCOCCOCCOCCOCCOCCOCCOCCOCCNC(=O)[C@H](CCCCNC(C)=O)NC(=O)[C@H](CCCCN)NC(=O)[C@H](CCCNC(=N)N)NC(=O)C(C)(C)NC(=O)[C@H](CO)NC(=O)[C@H](Cc1ccc(O)cc1)NC(=O)[C@@H](NC(=O)[C@H](CO)NC(=O)[C@H](CCCC)NC(=O)CNC(=O)[C@H](CCC(=O)O)NC(=O)C(C)(C)NC(=O)C(C)(C)NC(=O)[C@@H](NC(=O)[C@H](CCCCNC(C)=O)NC(=O)[C@H](C)NC(=O)[C@H](CCCNC(=N)N)NC(=O)[C@@H](NC(=O)[C@H](CCCCN)NC(=O)[C@H](CCC(=O)O)NC(=O)[C@H](CCCNC(=N)N)NC(=O)CNC(=O)[C@H](CCC(=O)O)NC(=O)[C@H](CC(C)C)NC(C)=O)C(C)C)[C@@H](C)CC)[C@@H](C)O)C(N)=O)C(=O)O)C(=O)O)C(=O)O) [peptide of SEQ ID NO: 46] | 0.61 nM | 79% | – | – |
| H-VIKLSGRELVRAQIAISGMSTWSKRSL-NH2 [B7-33 C11.23S] | – | – | 1640 nM | 90% |
| Ac-VIKLSGRELVRAQIAISGMSTWSKRSL-NH2 [AcB7-33 C11.23S] | – | – | 929 nM | 70% |
| Ac-VIKLSGRELVRAQIAISGMSTWSKKKK-NH2 [KKKK(AcB7-29 C11.23S)] | – | – | 206 nM | 84% |
| Ac-LEGREKVRAK(Ac)I[Aib][Aib]EG[Nle]STWS[Aib]RKK(Ac)[PEG28′]K([γGlu-γGlu-γGlu-Stearoyl])-NH2 [peptide of SEQ ID NO: 49] | 1.65 nM | 106% | – | – |
